# Source: patent US20260117204A1, “STABILIZER FOR URATE OXIDASE AND PEGYLATED CONJUGATE THEREOF, AND PHARMACEUTICAL USE OF STABILIZER” (Hangzhou Grand Biologic Pharmaceutical Inc., priority 2023, published 2026)
# What was measured:
# [1] = Stability of S1 and S2 urate oxidase with/without xanthine at 37° C.: SEC detection of high and low molecular proteins; type: physicochemical; details: for High molecular weight % / Low molecular weight % / Main peak %: storage 37° C. ± 2° C.
# Experimental: SEC, 7.8×300 mm chromatographic column or equivalent column was selected. 0.05 mol/L Na2HPO4—NaH2PO4, 0.3 mol/L NaCl, pH 7.0 was used as the mobile phase. The flow rate of HPLC was set to be 0.5 ml/min, and the detection wavelength to 280 nm. Isocratic elution was performed for 35 min, and the injection volume was 10 μl.
# (§1) In this example of the present disclosure, xanthine was added to the S1 and S2 samples at a molar ratio of 26 times (xanthine:urate oxidase). The samples were packaged and placed at 37° C. for stability evaluation at days 0, 1.5, 6, and 16. The evaluation indicators include the content of high and low molecular proteins and enzyme specific activity.
# [2] = Stability effect of xanthine on urate oxidase from Micrococcus at 2° C. to 8° C.: SEC; type: physicochemical; details: for High molecular weight % / Low molecular weight % / Main peak area / Main peak ratio % / Total peak area: SEC
# Experimental: SEC, 7.8×300 mm chromatographic column or equivalent column was selected. 0.05 mol/L Na2HPO4—NaH2PO4, 0.3 mol/L NaCl, pH 7.0 was used as the mobile phase. The flow rate of HPLC was set to be 0.5 ml/min, and the detection wavelength to 280 nm. Isocratic elution was performed for 35 min, and the injection volume was 10 μl. From the SEC results of the stability test at 2° C. to 8° C. in Table 3, it can be seen that the total peak area of the group with small molecules added on day 15 is larger and the main peak ratio thereof is higher.
# [3] = Effect of xanthine on the activity of PEGylated urate oxidase (UV 293 nm); type: biochemical; details: xanthine 0.075 to 1.2 μg/ml
# Experimental: The method used for determining the activity of urate oxidase and PEGylated urate oxidase was as follows. […] Therefore, the UV spectrophotometer detection wavelength was 293 nm. The buffer solution was used as a blank control, and the absorption zero point was calibrated. In the quartz cuvette, 2.95 ml of substrate reaction solution was added followed by 50 μl of the test solution, mixed immediately, and the light absorption value at 293 nm was measured. According to C=A/εL (A being the absorbance value of a specific concentration of uric acid at 293 nm, εbeing the molar extinction coefficient of uric acid, L being the light path of the cuvette, and C being the molar concentration of uric acid), the degradation concentration of uric acid and then the enzyme activity were calculated. Definition of the activity of urate oxidase and PEGylated urate oxidase: at the optimal reaction temperature of 37° C. and the optimal reaction pH of 9.5, the amount of enzyme required to convert […] uric acid into allantoin per minute being defined as one activity unit (U). […] The PEGylated urate oxidase solution was mixed with different amounts of xanthine at a molar ratio of 0.05 mg/ml PEGylated urate oxidase to xanthine of 1:0, 1:3, 1:11, and 1:44, and then the activity of urate oxidase and polyethylene glycol-modified urate oxidase was determined according to the above-mentioned detection method.
# [4] = Excerpt: As the amount of xanthine added increases, the pH of the solution needs to be further increased to dissolve xanthine. However, high pH conditions will cause protein denaturation. […] The stability change trend of PEGylated urate oxidase tetramer was detected by the detection method of high and low molecular proteins of PEGylated urate oxidase.
# The situation where the molar ratio of xanthine to PEGylated urate oxidase was higher than 26:1 was studied.
# [5] = Stability of S1 and S2 urate oxidase with/without xanthine at 37° C.: enzyme specific activity (uric acid absorbance at 293 nm); type: biochemical; details: storage 37° C. ± 2° C.
# Experimental: (§2) The method used for determining the activity of urate oxidase and PEGylated urate oxidase was as follows. […] Therefore, the UV spectrophotometer detection wavelength was 293 nm. The buffer solution was used as a blank control, and the absorption zero point was calibrated. In the quartz cuvette, 2.95 ml of substrate reaction solution was added followed by 50 μl of the test solution, mixed immediately, and the light absorption value at 293 nm was measured. According to C=A/εL (A being the absorbance value of a specific concentration of uric acid at 293 nm, εbeing the molar extinction coefficient of uric acid, L being the light path of the cuvette, and C being the molar concentration of uric acid), the degradation concentration of uric acid and then the enzyme activity were calculated.
# (§3) Definition of the activity of urate oxidase and PEGylated urate oxidase: at the optimal reaction temperature of 37° C. and the optimal reaction pH of 9.5, the amount of enzyme required to convert […] uric acid into allantoin per minute being defined as one activity unit (U).
# as §1
# [6] = Stability effect of xanthine on urate oxidase from Micrococcus at 2° C. to 8° C.: enzyme activity; type: biochemical; details: storage 2° C. to 8° C., 15 d
# Experimental: as §2, §3
# [7] = immediate detection after process preparation
Molecule,High molecular weight % ([1]; 0 d),Low molecular weight % ([1]; 0 d),Main peak % ([1]; 0 d),High molecular weight % ([1]; 1.5 d),Low molecular weight % ([1]; 1.5 d),Main peak % ([1]; 1.5 d),High molecular weight % ([1]; 6 d),Low molecular weight % ([1]; 6 d),Main peak % ([1]; 6 d),High molecular weight % ([1]; 16 d),Low molecular weight % ([1]; 16 d),Main peak % ([1]; 16 d),Enzyme specific activity U/mg ([5]; 0 d),Enzyme specific activity U/mg ([5]; 1.5 d),Enzyme specific activity U/mg ([5]; 6 d),Enzyme specific activity U/mg ([5]; 16 d),further results
O=c1[nH]c(=O)c2[nH]cnc2[nH]1 [xanthine],,,,,,,,,,,,,,,,,"effect of xanthine on the product stability of commercially available products and PHC ([1]; 26 times molar ratio, 37° C.): significantly improve the product stability; effect of xanthine on the stability of the enzyme derived from Micrococcus ([2]; 26 times xanthine, 2° C. to 8° C., day 15, text): improve the stability of the enzyme derived from Micrococcus to a certain extent; effect of the addition of xanthine on the activity of PEGylated urate oxidase [3]: no effect; solubility of xanthine [4]: good solubility"
"S2: Homemade recombinant pig-baboon chimeric urate oxidase (SEQ ID NO: 1), not PEG modified (protein) TYKKNDEVEFVRTGYGKDMIKVLHIQRDGKYHSIKEVATTVQLTLSSKKDYLHGDNSDVIPTDTIKNTVNVLAKFKGIKSIETFAVTICEHFLSSFKHVIRAQVYVEEVPWKRFEKNGVKHVHAFIYTPTGTHFCEVEQIRNGPPVIHSGIKDLKVLKTTQSGFEGFIKDQFTTLPEVKDRCFATQVYCKWRYHQGRDVDFEATWDTVRSIVLQKFAGPYDKGEYSPSVQKTLYDIQVLTLGQVPEIEDMEISLPNIHYLNIDMSKMGLINKEEVLLPLDNPYGKITGTVKRKLSSRL",0.7%,0.3%,99%,54.5%,0.2%,45.3%,75.1%,0.5%,24.4%,85.1%,5%,9.9%,11.3 U/mg,5.2 U/mg,3.2 U/mg,1.2 U/mg,
S1: Commercially available unmodified urate oxidase from Aspergillus flavus (SEQ ID NO: 8) (protein) SAVKAARYGKDNVRVYKVHKDEKTGVQTVYEMTVCVLLEGEIETSYTKADNSVIVATDSIKNTIYITAKQNPVTPPELFGSILGTHFIEKYNHIHAAHVNIVCHRWTRMDIDGKPHPHSFIRDSEEKRNVQVDVVEGKGIDIKSSLSGLTVLKSTNSQFWGFLRDEYTTLKETWDRILSTDVDATWQWKNFSGLQEVRSHVPKFDATWATAREVTLKTFAEDNSASVQATMYKMAEQILARQQLIETVEYSLPNKHYFEIDLSWHKGLQNTGKNAEVFAPQSDPNGLIKCTVGRSSLKSKL,0.3%,1%,98.8%,0.2%,5.6%,94.2%,7.3%,17.7%,75%,17.2%,51.7%,31%,15.3 U/mg,12.6 U/mg,8.5 U/mg,3 U/mg,
"urate oxidase from Micrococcus: Homemade recombinant urate oxidase from wild-type Micrococcus (SEQ ID NO: 9), not PEG modified (protein) MTNIILGKNQYGKAEVRLVKVTRNTCRHEIQDLNVTSQLRGDFEAAHTAGDNAHVVATDTQKNTVYAFARDGFATTEEFLLRLGKHFTEGFDWVTGGRWAAQQFFWDRINDHDHAFSRNKSEVRTAVLEISGSEQAIVAGIEGLTVLKSTGSEFHGFPRDKYTTLPETEDRILATDVSARWRYNTVEVDFDAVYADVRGLLLKAFAETHSLALQQTMYEMGRAVIETHPEIDEIKMSLPNKHHFLVDLSPFGQDNPNEVFYAADRPYGLIEATIQREGCRADHPIWSN",,,,,,,,,,,,,,,,,"High molecular weight % [2, 7]: 40.01%; Low molecular weight % [2, 7]: 2.34%; Main peak area [2, 7]: 3,986; Main peak ratio % [2, 7]: 57.65%; Total peak area [2, 7]: 6914.90; High molecular weight % ([2]; storage 2° C. to 8° C., 15 d): 74.58%; Low molecular weight % ([2]; storage 2° C. to 8° C., 15 d): 9.11%; Main peak area ([2]; storage 2° C. to 8° C., 15 d): 814; Main peak ratio % ([2]; storage 2° C. to 8° C., 15 d): 16.31%; Total peak area ([2]; storage 2° C. to 8° C., 15 d): 4993.05; Enzyme activity U/mg [6]: 3.58 U/mg"
